Test results: article PMC3521757, “Spastin's Microtubule-Binding Properties and Comparison to Katanin” (PLoS ONE, 2012)
One block for each molecule: values may come before it.

Columns and labels:
[1] = molecular target: microtubules (native, from pig brain tubulin) (pig) (UniProt P02550); assay: co-sedimentation; constant microtubule concentration (1 µM for spastin, 2 µM for katanin), increasing enzyme; 1 mM ATP; BRB80, room temperature, 100,000 g; stoichiometry by extrapolation of the saturation curve
[2] = molecular target: microtubules (native, from pig brain tubulin) (pig) (UniProt P02550); assay: co-sedimentation; constant microtubule concentration (1 µM for spastin, 2 µM for katanin), increasing enzyme; 1 mM ATP-γS; BRB80, room temperature, 100,000 g; stoichiometry by extrapolation of the saturation curve
[3] = molecular target: microtubules (native, from pig brain tubulin) (pig) (UniProt P02550); assay: co-sedimentation; constant microtubule concentration (1 µM for spastin, 2 µM for katanin), increasing enzyme; 1 mM ADP; BRB80, room temperature, 100,000 g; stoichiometry by extrapolation of the saturation curve
[4] = molecular target: microtubules (native, from pig brain tubulin) (pig) (UniProt P02550); assay: co-sedimentation; fixed E309Q-katanin concentration, variable microtubule concentrations (native or subtilisin-treated, up to 4 µM); 100,000 g, BRB80, room temperature; SDS-PAGE of supernatants and pellets
[5] = molecular target: subtilisin-treated microtubules (pig) (UniProt P02550); assay: as above
[6] = molecular target: microtubules (native, from pig brain tubulin) (pig) (UniProt P02550); assay: single-molecule TIRF microscopy; microtubules attached to the flow cell; 10 nM GFP-enzyme; buffer 5 with 160 mM NaCl (ionic strength 0.225 M); 1 mM ATP; mono-exponential lifetime; settings: for landing rate: scale: (10 µm)^−1 ·
[7] = molecular target: microtubules (native, from pig brain tubulin) (pig) (UniProt P02550); assay: single-molecule TIRF microscopy; microtubules attached to the flow cell by anti-tubulin antibody; 5–10 nM GFP-enzyme in solution; 1 mM ATP; landing rates and dwell times from kymographs; settings: for landing rate: scale: (10 µm)^−1 ·
[8] = molecular target: microtubules (native, from pig brain tubulin) (pig) (UniProt P02550); assay: single-molecule TIRF microscopy; microtubules attached to the flow cell by anti-tubulin antibody; 5–10 nM GFP-enzyme in solution; 1 mM ATP-γS; landing rates and dwell times from kymographs; settings: for landing rate: scale: (10 µm)^−1 ·
[9] = molecular target: microtubules (native, from pig brain tubulin) (pig) (UniProt P02550); assay: single-molecule TIRF microscopy; microtubules attached to the flow cell; 10 nM GFP-enzyme; buffer 5 with 300 mM NaCl (ionic strength 0.365 M); 1 mM ATP; mono-exponential lifetime; settings: for landing rate: scale: (10 µm)^−1 ·
[10] = molecular target: microtubules (native, from pig brain tubulin) (pig) (UniProt P02550); assay: single-molecule TIRF microscopy; microtubules attached to the flow cell; 10 nM GFP-enzyme; buffer 5 with 80 mM NaCl (ionic strength 0.145 M); 1 mM ATP; dwell time is a mean, not an exponential fit; settings: for landing rate: scale: (10 µm)^−1 ·
[11] = molecular target: microtubules (native, from pig brain tubulin) (pig) (UniProt P02550); assay: single-molecule TIRF microscopy; microtubules attached to the flow cell by anti-tubulin antibody; 5–10 nM GFP-enzyme in solution; 1 mM AMPPNP; landing rates and dwell times from kymographs; dwell times are lower limits; settings: for landing rate: scale: (10 µm)^−1 ·
[12] = molecular target: microtubules (native, from pig brain tubulin) (pig) (UniProt P02550); assay: co-sedimentation; fixed katanin construct concentration (1 µM), increasing microtubule concentrations (0 to 10 µM); band density fitted to a Hill function
[13] = molecular target: the molecule itself; assay: non-reducing SDS-PAGE; coiled coil wild type construct under oxidizing conditions (omission of reducing agents), compared with 1 mM mercapto-ethanol

Chain of subtilisin-treated microtubules (pig) (P02550 whole entry, chain 1 of 2): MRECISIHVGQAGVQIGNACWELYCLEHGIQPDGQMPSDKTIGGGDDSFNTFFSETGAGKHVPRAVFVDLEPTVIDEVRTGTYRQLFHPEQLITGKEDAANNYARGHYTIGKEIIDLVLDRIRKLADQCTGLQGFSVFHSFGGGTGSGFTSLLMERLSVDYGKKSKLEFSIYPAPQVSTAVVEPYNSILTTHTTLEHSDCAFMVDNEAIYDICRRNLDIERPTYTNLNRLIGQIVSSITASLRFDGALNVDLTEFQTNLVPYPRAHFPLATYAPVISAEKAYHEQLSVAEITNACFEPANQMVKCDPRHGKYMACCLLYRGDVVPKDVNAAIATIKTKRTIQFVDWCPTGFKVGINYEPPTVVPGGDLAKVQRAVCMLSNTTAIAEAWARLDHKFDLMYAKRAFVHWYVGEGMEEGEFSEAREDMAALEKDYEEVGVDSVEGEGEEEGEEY
Chain of subtilisin-treated microtubules (pig) (Q767L7 whole entry, chain 2 of 2, further chain): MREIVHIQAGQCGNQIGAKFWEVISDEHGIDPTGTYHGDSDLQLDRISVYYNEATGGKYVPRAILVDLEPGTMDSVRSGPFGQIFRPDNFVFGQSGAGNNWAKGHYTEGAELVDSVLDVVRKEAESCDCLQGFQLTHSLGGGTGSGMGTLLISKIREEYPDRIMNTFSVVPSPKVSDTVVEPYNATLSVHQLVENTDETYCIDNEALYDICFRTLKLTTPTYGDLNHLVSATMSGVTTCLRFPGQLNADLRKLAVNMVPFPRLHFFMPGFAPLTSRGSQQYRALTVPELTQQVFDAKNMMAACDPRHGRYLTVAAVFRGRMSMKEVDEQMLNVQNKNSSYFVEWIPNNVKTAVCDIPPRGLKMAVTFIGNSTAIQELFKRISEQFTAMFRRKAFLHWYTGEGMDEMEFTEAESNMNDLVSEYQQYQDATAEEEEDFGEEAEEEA

Molecule: spastin E442Q mutant (from UniProt Q9UBP0 227-616) (domain or fragment)
stoichiometry N (enzyme∶tubulin) [1]: 2.7
stoichiometry N (enzyme∶tubulin) [2]: 2.2
stoichiometry N (enzyme∶tubulin) [3]: 1.3

B3: Kat12 (domain or fragment)
chain: MSLLMISENVKLAREYALLGNYDSAMVYYQGVLDQMNKYLYSVKDTYLQQKWQQVWQEINVEAKHVKDIMKTLESFKLDSTPLKAAQHDLPASEGEVWSMPVPVERRPSPGPRKRQSSQYSDPKSHGNRPSTTVRVHRSSAQNVHNDRGKAVRCREKKEQNKGREEKNKSPAAVTEPETNK
half-maximal saturation (microtubule concentration) [12]: 0.34 µM

B4: coiled-coil-Δ227 HsSpastin construct (wild type) (other)
chain: AEECKRRYEKEKEKNARLKGKVEKLEIELARWRASESGAVPKRKDPLTHTSNSLPRSKTVMKTGSAGLSGHHRAPSYSGLSMVSGVKQGSGPAPTTHKGTPKTNRTNKPSTPTTATRKKKDLKNFRNVDSNLANLIMNEIVDNGTAVKFDDIAGQDLAKQALQEIVILPSLRPELFTGLRAPARGLLLFGPPGNGKTMLAKAVAAESNATFFNISAASLTSKYVGEGEKLVRALFAVARELQPSIIFIDEVDSLLCERREGEHDASRRLKTEFLIEFDGVQSAGDDRVLVMGATNRPQELDEAVLRRFIKRVYVSLPNEETRLLLLKNLLCKQGSPLTQKELAQLARMTDGYSGSDLTALAKDAALGPIRELKPEQVKNMSASEMRNIRLSDFTESLKKIKRSVSPQTLEAYIRWNKDFGDTTV
modifications: disulphide bridge between the cysteines introduced in the coiled coil domain (oxidizing conditions)
stoichiometry N [13]: 2

Second part, the molecule after the results:

stoichiometry N (enzyme∶tubulin) [1]: 3
stoichiometry N (enzyme∶tubulin) [2]: 2.8
stoichiometry N (enzyme∶tubulin) [3]: 1.1
half-maximal saturation (microtubule concentration) [4]: 0.4 µM
fold reduction of affinity against native microtubules [5]: > 10 fold
fraction bound at 4 µM microtubules [5]: < 0.33
Molecule: katanin E309Q (Walker B mutant) (from UniProt O75449 1-491) (enzyme)

stoichiometry N (enzyme∶tubulin) [2]: 2.1
stoichiometry N (enzyme∶tubulin) [3]: 1.4
Molecule: wild type spastin (co-sedimentation assays) (from UniProt Q9UBP0 227-616) (domain or fragment)

dwell time [6]: 5.6 s
koff/kon [6]: 2.82 10 nM 10 µm
landing rate [6]: 4.64
dwell time [7]: 4.02 s
koff/kon [7]: 1.06 10 nM 10 µm
landing rate [7]: 14.1
stoichiometry N (enzyme∶tubulin) [2]: 2.8
stoichiometry N (enzyme∶tubulin) [3]: 1.1
dwell time [8]: 10.1 s
koff/kon [8]: 0.684 10 nM 10 µm
landing rate [8]: 8.73
dwell time [9]: 2.5 s
koff/kon [9]: 13.6 10 nM 10 µm
landing rate [9]: 1.93
dwell time [10]: 7.3 s
koff/kon [10]: 0.609 10 nM 10 µm
landing rate [10]: 15.8
dwell time [11]: > 246 s
koff/kon [11]: 0.118 10 nM 10 µm
landing rate [11]: 2.06
Molecule: GFP-FLAG HsKatanin (full-length katanin p60) (from UniProt O75449 1-491) (enzyme)

half-maximal saturation (microtubule concentration) [12]: 0.4 µM
B1: Kat2 (domain or fragment)
chain: WQEINVEAKHVKDIMKTLESFKLDSTPLKAAQHDLPASEGEVWSMPVPVERRPSPGPRKRQSSQYSDPKSHGNRPSTTVRVHRSSAQNVHNDRGKAVRCREKKEQNKGREEKNKSPAAVTEPETNK

dwell time [6]: 6.4 s
landing rate [6]: 4.07
dwell time [7]: 10.1 s
landing rate [7]: 22.7
dwell time [8]: 55.7 s
landing rate [8]: 21.2
dwell time [9]: 4.2 s
landing rate [9]: 1.61
dwell time [10]: 9.6 s
landing rate [10]: 24.2
dwell time [11]: > 254 s
landing rate [11]: 13.4
B2: GFP-Δ227 HsSpastin (domain or fragment)
chain: SESGAVPKRKDPLTHTSNSLPRSKTVMKTGSAGLSGHHRAPSYSGLSMVSGVKQGSGPAPTTHKGTPKTNRTNKPSTPTTATRKKKDLKNFRNVDSNLANLIMNEIVDNGTAVKFDDIAGQDLAKQALQEIVILPSLRPELFTGLRAPARGLLLFGPPGNGKTMLAKAVAAESNATFFNISAASLTSKYVGEGEKLVRALFAVARELQPSIIFIDEVDSLLCERREGEHDASRRLKTEFLIEFDGVQSAGDDRVLVMGATNRPQELDEAVLRRFIKRVYVSLPNEETRLLLLKNLLCKQGSPLTQKELAQLARMTDGYSGSDLTALAKDAALGPIRELKPEQVKNMSASEMRNIRLSDFTESLKKIKRSVSPQTLEAYIRWNKDFGDTTV
